Laboratory results published in patent US20240317816A1, “PEPTIDES FOR IMMUNOTHERAPY” (Genevive, Inc., priority 2021, published 2024).

Assays:
CCR7 [1] = biological target: T1, CCR7 (Homo sapiens, UniProt P32248); assay: SelectScreen agonist/antagonist assay, chemokine receptor expressing U2OS cells; type: cell-based
T1 construct: expressed in transfected cells
T1 sequence (P32248 25-378): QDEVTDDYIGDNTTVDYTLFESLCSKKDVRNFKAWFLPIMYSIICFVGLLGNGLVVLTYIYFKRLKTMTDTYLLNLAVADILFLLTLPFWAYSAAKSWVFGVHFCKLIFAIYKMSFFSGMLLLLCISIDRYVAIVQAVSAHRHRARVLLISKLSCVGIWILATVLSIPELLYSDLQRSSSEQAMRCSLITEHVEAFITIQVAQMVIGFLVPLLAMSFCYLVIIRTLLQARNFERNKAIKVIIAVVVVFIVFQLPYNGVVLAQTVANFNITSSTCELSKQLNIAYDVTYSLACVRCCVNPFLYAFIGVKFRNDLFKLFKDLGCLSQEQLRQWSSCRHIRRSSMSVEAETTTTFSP
Experimental: In agonist assays, chemokine receptor expressing U2OS cells are thawed and resuspended in Assay Media (DMEM, 1% dialyzed FBS, 25 mM HEPES pH 7.3, 0.1 mM NEAA, 100 U/mL/100 μg/mL Pen/Strep) to a concentration of 312,500 cells/mL. 4 μL of a 10× serial dilution of I-TAC (control agonist starting concentration, 500 nM) or compounds are added to appropriate wells of a 384-well TC-Treated assay plate. 32 μL of cell suspension (10,000 cells) is added to each well. 4 μL of Assay Media is added to all wells to bring the final assay volume to 40 μL. The plate is incubated for 16-24 hours at 37° C./5% CO2 in a humidified incubator. 8 μL of 1 μM Substrate+Solution D Loading Solution is added to each well and the plate is incubated for 2 hours at room temperature. The plate is read on a fluorescence plate reader.
In antagonist assays, CXCR3-bla U2OS cells were thawed and prepared as described above for the Agonist assay. 4 μL of 10× compounds or assay media was added to appropriate wells of a TC-Treated assay plate. 32 μL of cell suspension was added to the wells and pre-incubated at 37° C./5% CO2 in a humidified incubator with compounds and control antagonist titration for 30 minutes. 4 μL of 10× control agonist I-TAC at the pre-determined EC80 concentration is added to wells containing the control antagonist or compounds. […] The plate is read on a fluorescence plate reader.

RENCA cells = assay: RENCA murine adenocarcinoma model, anti-tumor activity; type: in vivo, BALB/c female mice; settings: for tumor volume: 2.5 mg/kg peritumorally daily; for survival: initial dosing
Experimental: To determine anti-tumor activity of SG-3-00802 in vivo, the RENCA murine adenocarcinoma model was used. It is a syngeneic, standardized experimental model of metastatic RCC. Briefly, BALB/c female mice were inoculated subcutaneously with RENCA cells. Established tumors were treated daily with 2.5 mg/kg SG-3-00802 peritumorally, alone or in combination with intraperitoneal administration of 10 mg/kg anti-PD-1 antibody.
Additional studies were performed to test survival and tumor volume responses to a re-challenge event. In one study, mice were allocated into dosing groups when tumors reached ˜100 mm^3. During the initial dosing study, time 0 was the first day of seven days of dosing. […] Re-implantation was completed on day 39 after dosing completion. Treated mice were tumor free for >20 days before being re-challenge. […] Tumor volume and survival was monitored as previously described. In the re-challenge experiment, time 0 is day 10 after re-challenge dosing.
To determine anti-tumor activity of SG-3-05021 in vivo, the RENCA murine adenocarcinoma model was used. Briefly, BALB/c female mice were inoculated subcutaneously with RENCA cells. Established tumors were treated daily with 2.5 mg/kg SG-3-05021 peritumorally, alone or in combination with intraperitoneal administration of 10 mg/kg anti-PD-1 antibody.

CCR7 [2] = biological target: T1, CCR7; assay: gpcrMAX PathHunter β-Arrestin Assay; type: cell-based
Source text: (§1) The PathHunter® β-Arrestin Assay monitored activation of a panel of 168 G-protein coupled receptors (GPCRs) with […] activation of the GPCR in agonist and antagonist mode.
(§2) where the test sample is the peptide, the vehicle control is DMSO (0% activity), and the control ligand is control compound (100% activity).
(§3) Peptides SG-3-00802 and SG-3-05021 were identified as an agonist, an antagonist, a PAM (Positive Allosteric Modulator), or an inverse-agonist. Agonist, antagonist, PAM, and inverse-agonist were identified according to the guidelines in Table 8. The basal activity/noise is a % activity of −20% to 20% for both agonist and antagonist modes. A PAM (Positive Allosteric Modulator) binds to a receptor, at a different site than the agonist, to change the receptor's response to the agonist. An inverse-Agonist is a binding partner with agonistic shutting down of basal activity in the cell. An antagonist antagonizes the activity of a particular binding partner.

CXCR3 = biological target: T2, CXCR3 (Homo sapiens, UniProt P49682); assay: gpcrMAX PathHunter β-Arrestin Assay; type: cell-based
T2 sequence (P49682 1-368): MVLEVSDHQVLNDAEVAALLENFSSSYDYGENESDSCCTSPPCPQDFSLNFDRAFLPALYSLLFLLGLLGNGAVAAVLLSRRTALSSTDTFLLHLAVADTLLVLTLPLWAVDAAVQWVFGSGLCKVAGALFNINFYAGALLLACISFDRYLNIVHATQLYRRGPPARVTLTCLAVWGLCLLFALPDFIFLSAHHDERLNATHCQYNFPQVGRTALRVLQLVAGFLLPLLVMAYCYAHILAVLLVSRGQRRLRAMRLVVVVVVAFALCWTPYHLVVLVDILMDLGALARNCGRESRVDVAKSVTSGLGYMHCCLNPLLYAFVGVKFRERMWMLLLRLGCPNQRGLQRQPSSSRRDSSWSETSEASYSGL
Source text: as §1, §2, §3

CXCR4 = biological target: T3, CXCR4 (Homo sapiens, UniProt P61073); assay: gpcrMAX PathHunter β-Arrestin Assay; type: cell-based
T3 construct: host or cells: U2OS
T3 sequence (P61073 whole entry): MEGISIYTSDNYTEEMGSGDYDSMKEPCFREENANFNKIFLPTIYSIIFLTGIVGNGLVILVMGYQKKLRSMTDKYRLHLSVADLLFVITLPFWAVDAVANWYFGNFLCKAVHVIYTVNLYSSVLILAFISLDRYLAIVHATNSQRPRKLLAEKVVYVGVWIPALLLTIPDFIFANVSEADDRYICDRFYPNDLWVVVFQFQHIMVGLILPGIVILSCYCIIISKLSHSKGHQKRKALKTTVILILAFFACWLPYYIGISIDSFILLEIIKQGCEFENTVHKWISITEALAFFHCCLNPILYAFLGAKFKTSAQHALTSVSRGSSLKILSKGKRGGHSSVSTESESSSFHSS
Source text: as §1, §2, §3

[3] = in combination with 10 mg/kg i.p. anti-PD-1

Sequence | SelectScreen Agonist Mode (CCR7 [1]) | tumor volume (RENCA cells; alone, vs PBS) | tumor volume (RENCA cells; [3]) | survival (RENCA cells; in combination with anti-PD-1) | survival (RENCA cells; peptide alone) | # of animals with complete tumor regression out of total animals per group (primary study) (RENCA cells; primary study) | Interpretation (CCR7 [2]) | gpcrMAX Agonist Mode (% Agonist Activity) (CCR7 [2]) [%] | gpcrMAX Antagonist Mode (% Antagonist Activity) (CCR7 [2]) [%] | gpcrMAX Agonist Mode (% Agonist Activity) (CXCR3) [%] | gpcrMAX Antagonist Mode (% Antagonist Activity) (CXCR3) [%] | gpcrMAX Agonist Mode (% Agonist Activity) (CXCR4) [%] | gpcrMAX Antagonist Mode (% Antagonist Activity) (CXCR4) [%]
MKVRPSVKPMCEKCKIIRRKGRVMVICENPKHKQRQG [SG-3-00802] | weak agonistic activity and No | robust decrease in tumor volume | robust decrease in tumor volume | increased survival | increased survival | 2/12 | No | 0 | 0 | −4 | −32 | −14 | 99
LGKTDWIEKYFKVKKEKIDKMQRFLQG (peptide for immunotherapy; SG-3-05021) | no agonistic activity and No | decrease in tumor volume | decrease in tumor volume | survived a longer time | survived a longer time |  |  | 0 | −18 | −4 | −20 | 1 | 10
